Where a chain is given by its changes, count along the chain named.
B1: unnamed (protein)
chain: MLSFLRSTGRPERRRASLPALLLFTAALVASGLTAAPAAQAADNPYQRGPDPTNASIEAATGPFAVGTQPIVGASGFGGGQIYYPTDTSQTYGAVVIVPGFISVWAQLNWLGPRLASQGFVVIGIETSVITDLPDPRGDQALAALDWATTRSPVASRIDRTRLAAAGWSMGGGGLRRAACQRPSLKAIVGMAPWNGERNWSCVTVPTLFFGGSSDAVASPNDHAKPFYNSITRAEKDYIELCNADHFFPTSANTTMAKYFISWLKRWVDNDTRYTQFLCPGPSTGLFAPVCASMNTCPF
B2: unnamed (protein)
chain: B1 chain with C180L, C202A, T204C, R233C, C242R, C291S
B3: unnamed (protein)
chain: B1 chain with I102T, C180L, C202A, C242R, C291S
B4: unnamed (protein)
chain: B1 chain with N109A, V129T, A155R, R198K
B5: unnamed (protein)
chain: B1 chain with Q107S, C180L, C202A, C242R, C291S
B6: unnamed (protein)
chain: B1 chain with C180L, C202A, C242R, C291S, M294R
B7: unnamed (protein)
chain: B1 chain with G76C, A143C, C180L, C202A, C242R, C291S
B8: unnamed (protein)
chain: B1 chain with N109A
B9: unnamed (protein)
chain: B1 chain with C180L, C202A, R233A, C242R, C291S
B10: unnamed (protein)
chain: B1 chain with L133Q, C180L, C202A, C242R, C291S
B11: unnamed (protein)
chain: B1 chain with C180L, C202A, C242R, A252N, C291S
B12: unnamed (protein)
chain: B1 chain with P136S, C180L, C202A, C242R, C291S
B13: unnamed (protein)
chain: B1 chain with C180L, C202A, C242R, T250N, C291S
B14: unnamed (protein)
chain: B1 chain with L133Y, C180L, C202A, C242R, C291S
B15: unnamed (protein)
chain: B1 chain with R160A, C180L, C202A, C242R, C291S
B16: unnamed (protein)
chain: B1 chain with C180L, G196L, C202A, C242R, C291S

These proteins were tested on pcPET (post-consumer) (assay: Proxy for plastic degradation [Released monomer concentration (HPLC/LC-MS) (TPA+MHET+BHET)]). Settings: pH 9; 40 °C; 24 h.
With B1 the “Proxy for plastic degradation” value was 948 µM. In the case of B2, the “Proxy for plastic degradation” value is reported as 590 µM. With B3 the “Proxy for plastic degradation” value was 560 µM. For B4, the “Proxy for plastic degradation” value was 1250 µM. B5 was tested, and the “Proxy for plastic degradation” value was 620 µM. With B6 the “Proxy for plastic degradation” value was 310 µM. B7 was tested, and the “Proxy for plastic degradation” value was 295 µM. In the case of B8, the “Proxy for plastic degradation” value is reported as 1080 µM. With B9 the “Proxy for plastic degradation” value was 715 µM. With B10 the “Proxy for plastic degradation” value was 470 µM. B11 was tested, and the “Proxy for plastic degradation” value was 530 µM. In the case of B12, the “Proxy for plastic degradation” value is reported as 680 µM. For B13, the “Proxy for plastic degradation” value was 10 µM. In the case of B14, the “Proxy for plastic degradation” value is reported as 405 µM. With B15 the “Proxy for plastic degradation” value was 680 µM. For B16, the “Proxy for plastic degradation” value was 520 µM.

Same assay, conditions: pH 9; 60 °C; 6 h
In the case of B1, the “Proxy for plastic degradation” value is reported as 270 µM. B4 was tested, and the “Proxy for plastic degradation” value was 1560 µM. In the case of B8, the “Proxy for plastic degradation” value is reported as 420 µM.

Reference: the PETadex activity labels (doi:10.1038/s41467-023-40233-w)
